Consider 5 molecules from patent US12281155 (INSTITUT PASTEUR, dated 2025).

In experiment [1] the target is T1, recombinant SARS-CoV-2 Spike RBD domain, Delta variant (SARS-CoV-2).
T1 construct: also called RBD Delta variant
The experiment can be described thus: ELISA on coated RBD. In general terms: An ELISA detects its analyte on a solid surface through an enzyme-linked reagent.

Experiment [2] deals with T2, recombinant SARS-CoV-2 Spike RBD domain, XBB.1.16 variant (SARS-CoV-2).
T2 construct: also called RBD XBB.1.16 variant
Put plainly: ELISA on coated RBD.

Experiment [3] deals with T3, recombinant SARS-CoV-2 Spike RBD domain, BA.2.75.2 variant (SARS-CoV-2).
T3 construct: also called RBD BA.2.75.2 variant
The experiment can be described thus: ELISA on coated RBD.

In experiment [4] the target is T4, recombinant SARS-CoV-2 Spike RBD domain, BQ.1.1 variant (SARS-CoV-2).
T4 construct: also called RBD BQ.1.1. variant
Put plainly: ELISA on coated RBD.

Experiment [5] addresses T5, recombinant SARS-CoV-2 Spike RBD domain, BA.4/5 variant (SARS-CoV-2).
T5 construct: also called RBD BA.4/5 variant
Put plainly: ELISA on coated RBD.

Experiment [6] deals with T6, recombinant SARS-CoV-2 Spike RBD domain, XBB.1.5 variant (SARS-CoV-2).
T6 construct: also called RBD XBB.1.5 variant
The experiment can be described thus: ELISA on coated RBD.

Experiment [7] deals with T7, recombinant SARS-CoV-2 Spike RBD domain, JN-1 variant (SARS-CoV-2).
T7 construct: also called RBD JN-1 variant
The experiment can be described thus: ELISA on coated RBD.

The target of experiment [8] is T8, recombinant SARS-CoV-2 Spike RBD domain, BA.2.86 variant (SARS-CoV-2).
T8 construct: also called RBD BA.2.86 variant
The experiment can be described thus: ELISA on coated RBD.

The target of experiment [9] is T9, recombinant SARS-CoV-2 Spike RBD domain, EG.5 variant (SARS-CoV-2).
T9 construct: also called RBD EG.5.1 variant
Put plainly: ELISA on coated RBD.

In experiment [10] the target is T10, recombinant SARS-CoV-2 Spike RBD domain, BA.2 variant (SARS-CoV-2).
T10 construct: also called RBD BA.2. variant
The experiment can be described thus: ELISA on coated RBD.

For experiment [11], the target named is T1, recombinant SARS-CoV-2 Spike RBD …. Put plainly: competition ELISA, blocking of RBD binding to ACE2 ectodomain.
Experiment [12] has as its target T2, recombinant SARS-CoV-2 Spike RBD …. The experiment is described as above.
In experiment [13] the target is T3, recombinant SARS-CoV-2 Spike RBD …. The description is as above.
Experiment [14] has as its target T4, recombinant SARS-CoV-2 Spike RBD …. Described as above.
In experiment [15] the target is T5, recombinant SARS-CoV-2 Spike RBD …. The experiment is described as above.
The target of experiment [16] is T6, recombinant SARS-CoV-2 Spike RBD …. The experiment is described as above.
Experiment [17] addresses T7, recombinant SARS-CoV-2 Spike RBD …. Described as above.
Experiment [18] deals with T8, recombinant SARS-CoV-2 Spike RBD …. The description is as above.
Experiment [19] addresses T9, recombinant SARS-CoV-2 Spike RBD …. The description is as above.
Experiment [20] deals with T10, recombinant SARS-CoV-2 Spike RBD …. The description is as above.
The target of experiment [21] is Spike protein of SARS-CoV-2 strain JN.1 (hCoV-19/France/HDF-IPP21391/2023) (SARS-CoV-2). Put plainly: cell-based or functional assay.
Experiment [22] deals with Spike protein of SARS-CoV-2 strain XBB.1.5 (GISAID EPI_ISL_16353849) (SARS-CoV-2). Put plainly: cell-based or functional assay.
Experiment [23] has as its target Spike protein of SARS-CoV-2 strain XBB.1.16 (hCoV-19/France/GES-IPP7712/2023) (SARS-CoV-2). Put plainly: cell-based or functional assay.
Experiment [24] addresses Spike protein of SARS-CoV-2 strain D614G (hCoV-19/France/GE1973/2020) (SARS-CoV-2, UniProt P0DTC2 14-1273). Put plainly: cell-based or functional assay.
The target of experiment [25] is Spike protein of SARS-CoV-2 strain EG.5.1 (hCoV-19/France/GES-IPP15954/2023) (SARS-CoV-2). Put plainly: cell-based or functional assay.
The target of experiment [26] is Spike protein of SARS-CoV-2 strain BA.2.86 (hCoV-19/France/IDF-IPP17625/2023) (SARS-CoV-2). Put plainly: cell-based or functional assay.

B1: SPK002M A3 antibody (antibody, human IgG1, kappa, V domains shown)
VH: EVQLVESGGGLIQPGGSLRLSCAASTITVTSNYMSWVRQAPGKGLEWVSVIYPGGSTFYADSVKGRFTISADNSKNTLYLQMNSLRAEDTAVYYCARDLVVYGMDVWGQGTTVTVSS
VL: EIVLTQSPGTLSLSPGERATLSCRASQSVSSSYLAWYQQKPGQAPRLLIYGASSRATGIPGRFSGSGSGTDFTLTISRLEPEDFAVYYCQQGVTFGGGTKVEIKR
With B1, the “Binding AUC” value in [1] was 31; in [2] it was 31; in experiment [3], 34; in experiment [4], 30; in experiment [5], 30; in experiment [6], 35. Also, the “Binding AUC” value in [7] amounted to 26; in experiment [8] it was 38; in [9] it was 34; in [10], 32. Besides, the Blocking % was determined as 95% in experiment [11]; 95% in experiment [12]; 96% in [13]; 96% in experiment [14]; 96% in experiment [15]; 95% in [16]. Moreover, the Blocking % was determined as 0% in experiment [17], 85% in [18], 79% in experiment [19] and 94% in experiment [20]. In addition, the “IC50, S-Fuse neutralization of live virus” value (from here on “IC50, S-Fuse neutralization”) is 76.3 µg/mL in [21]; 0.12 µg/mL in experiment [22]; 0.36 µg/mL in [23]; 0.11 µg/mL in experiment [24]; 5.92 µg/mL in experiment [25]; 0.05 µg/mL in [26].

B2: SPK002M A1 antibody (antibody, human IgG1, kappa, V domains shown)
VH: EVQLVESGGGLIQPGGSLRLSCAASTITVTSNYMSWVRQAPGKGLEWVSVIYPGGSTFYADSVKGRFTISADNSKNTLYLQMNSLRAEDTAVYYCARDLVVYGMDVWGQGTTVTVSS
VL: EIVLTQSPGTLSLSPGERATLSCRASQGFSSSYLAWYQQKPGQAPRLLIYGASSRATGIPGRFSGSGSGTDFTLTISRLEPEDFAVYYCQQGVTFGGGTKVEIKR
Consider B2, for which the “Binding AUC” value in [1] was 31; in experiment [2], 30; in [3], 34; in experiment [4] it was 30; in [5], 31; in experiment [6], 35. Besides, the “Binding AUC” value in experiment [7] amounted to 39; in experiment [8], 37; in experiment [9], 35; in experiment [10], 33. The Blocking % was 94% in experiment [11]; 97% in experiment [12]; 96% in [13]; 97% in experiment [14]; 97% in experiment [15]; 97% in experiment [16]. Besides, the Blocking % is 71% in [17], 85% in experiment [18], 90% in experiment [19] and 95% in experiment [20]. Also, the “IC50, S-Fuse neutralization” value in experiment [21] amounted to 1.28 µg/mL; in experiment [22], 0.07 µg/mL; in experiment [23] it was 0.17 µg/mL; in experiment [24] it was 0.08 µg/mL; in [25], 0.15 µg/mL; in experiment [26], 0.02 µg/mL.

B3: SPK002M A6 antibody (antibody, human IgG1, kappa, V domains shown)
VH: EVQLVESGGGLIQPGGSLRLSCAASGITVTSNYMSWVRQAPGKGLEWVSVIYPGGSTFYADSVKGRFTISADNSKNTLYLQMNSLRAEDTAVYYCARDLVVYGMDVWGQGTTVTVSS
VL: EIVLTQSPGTLSLSPGERATLSCRASQSVSSSYLAWYQQKPGQAPRLLIYGASSRATGIPGRFSGSGSGTDFTLTISRLEPEDFAIYYCQQGVTFGGGTKVEIKR
Consider B3, for which the “IC50, S-Fuse neutralization” value in [21] turned out to be 100 µg/mL; in [22], 0.36 µg/mL; in experiment [23], 1.34 µg/mL; in experiment [24], 0.07 µg/mL; in experiment [25] it was 21.1 µg/mL; in experiment [26], 0.63 µg/mL.

B4: SPK002M A2 antibody (antibody, human IgG1, kappa, V domains shown)
VH: EVQLVESGGGLIQPGGSLRLSCAASTITVTSNYMSWVRQAPGKGLEWVSVIYPGGSTFYADSVKGRFTISADNSKNTLYLQMNSLRAEDTAVYYCARDLVVYGMDVWGQGTTVTVSS
VL: EIVLTQSPGTLSLSPGERATLSCRASQGVSSSYLAWYQQKPGQAPRLLIYGASSRATGIPGRFSGSGSGTDFTLTISRLEPEDFAVYYCQQGVTFGGGTKVEIKR
With B4, the “Binding AUC” value is 31 in experiment [1]; 31 in experiment [2]; 34 in experiment [3]; 30 in experiment [4]; 30 in experiment [5]; 36 in [6]. The “Binding AUC” value in [7] was found to be 37; in [8], 38; in experiment [9] it was 35; in experiment [10] it was 32. In addition, the Blocking % in experiment [11] worked out at 95%; in experiment [12], 96%; in experiment [13], 96%; in experiment [14], 97%; in [15] it was 97%; in experiment [16] it was 96%. Further, the Blocking % in [17] came out at 1%; in [18] it was 85%; in experiment [19] it was 88%; in experiment [20] it was 94%. Moreover, the “IC50, S-Fuse neutralization” value in experiment [21] amounted to 25.3 µg/mL; in experiment [22], 0.1 µg/mL; in experiment [23] it was 0.33 µg/mL; in experiment [24], 0.1 µg/mL; in [25], 1.65 µg/mL; in experiment [26], 0.05 µg/mL.

B5: SPK002 antibody (parental version Cv2.3194 described in WO 2022/228827) (antibody, V domains shown)
VH: EVQLVESGGGLIQPGGSLRLSCAASGITVTSNYMSWVRQAPGKGLEWVSVIYPGGSTFYADSVKGRFTISRDNSKNTLYLQMNSLRAEDTAVYYCARDLVVYGMDVWGQGTTVTVS
VL: EIVLTQSPGTLSLSPGERATLSCRASQSVSSSYLAWYQQKPGQAPRLLIYGASSRATGIPGRFSGSGSGTDFTLTISRLEPEDFAIYYCQQGVTFGGGTKVEIK
For B5, the “IC50, S-Fuse neutralization” value in [21] came to 100 µg/mL; in experiment [22], 216 µg/mL; in [23] it was 156 µg/mL; in experiment [24], 0.09 µg/mL; in experiment [25], 100 µg/mL; in [26], 100 µg/mL.
